In publication PMC8201801 (Proceedings of the National Academy of Sciences of the …, 2021):

Target: T1, Canine parvovirus (CPV) capsid (Canine parvovirus type 2 (CPV-2), …)
T1 chain: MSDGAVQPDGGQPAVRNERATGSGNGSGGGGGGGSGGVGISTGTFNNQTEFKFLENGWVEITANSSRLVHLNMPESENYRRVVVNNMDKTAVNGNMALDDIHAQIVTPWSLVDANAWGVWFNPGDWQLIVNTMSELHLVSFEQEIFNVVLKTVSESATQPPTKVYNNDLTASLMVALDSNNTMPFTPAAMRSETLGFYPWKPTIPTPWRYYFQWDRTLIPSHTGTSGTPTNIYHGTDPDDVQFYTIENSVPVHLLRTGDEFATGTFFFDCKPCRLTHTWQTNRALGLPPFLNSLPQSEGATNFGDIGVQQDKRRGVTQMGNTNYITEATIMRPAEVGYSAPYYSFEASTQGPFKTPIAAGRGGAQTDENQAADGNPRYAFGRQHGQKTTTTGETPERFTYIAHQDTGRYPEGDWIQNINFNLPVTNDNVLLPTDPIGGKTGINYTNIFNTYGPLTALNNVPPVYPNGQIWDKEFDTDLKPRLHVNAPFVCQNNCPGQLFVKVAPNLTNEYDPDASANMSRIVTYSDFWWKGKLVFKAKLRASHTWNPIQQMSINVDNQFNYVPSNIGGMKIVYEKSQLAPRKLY
Assay: cryo-EM structure

B1: Fab of MAb 14 (Fab 14) (Fab, V domains shown)
VH: AVHLQGTELVKPGASAGVKLSCKASGYTFTNYDMNWVRQRPEQGLEWIGWIFPGDGSTRYNEKFKGKATLTTDKSSSTAYQLNRLTSEDSAVYFCARRGSHGSYSFAYWGQGTLVTVSG
VL: DIVMTQSHKFMSTSVGDRVSITCKASQDVNTALAWYQQIPGQSPKLLIYSASNRYTGVPDRFTASGSGTDFTFTISSVQAEDLALYYCQQHYTTPWTFGGGTKLEIK
For B1, which “stoichiometry N” value is on record?
The value was about 60 Fab per capsid.
